The values that follow are results of earlier work, collected in publication PMC2409454.

Broadly, the Kd is the free concentration of one partner at which half of the binding sites on the other are occupied at equilibrium, for simple one-to-one binding.

The series addresses pRb (Homo sapiens) (UniProt P06400).
UniProt P06400, sequence (P06400 2-928): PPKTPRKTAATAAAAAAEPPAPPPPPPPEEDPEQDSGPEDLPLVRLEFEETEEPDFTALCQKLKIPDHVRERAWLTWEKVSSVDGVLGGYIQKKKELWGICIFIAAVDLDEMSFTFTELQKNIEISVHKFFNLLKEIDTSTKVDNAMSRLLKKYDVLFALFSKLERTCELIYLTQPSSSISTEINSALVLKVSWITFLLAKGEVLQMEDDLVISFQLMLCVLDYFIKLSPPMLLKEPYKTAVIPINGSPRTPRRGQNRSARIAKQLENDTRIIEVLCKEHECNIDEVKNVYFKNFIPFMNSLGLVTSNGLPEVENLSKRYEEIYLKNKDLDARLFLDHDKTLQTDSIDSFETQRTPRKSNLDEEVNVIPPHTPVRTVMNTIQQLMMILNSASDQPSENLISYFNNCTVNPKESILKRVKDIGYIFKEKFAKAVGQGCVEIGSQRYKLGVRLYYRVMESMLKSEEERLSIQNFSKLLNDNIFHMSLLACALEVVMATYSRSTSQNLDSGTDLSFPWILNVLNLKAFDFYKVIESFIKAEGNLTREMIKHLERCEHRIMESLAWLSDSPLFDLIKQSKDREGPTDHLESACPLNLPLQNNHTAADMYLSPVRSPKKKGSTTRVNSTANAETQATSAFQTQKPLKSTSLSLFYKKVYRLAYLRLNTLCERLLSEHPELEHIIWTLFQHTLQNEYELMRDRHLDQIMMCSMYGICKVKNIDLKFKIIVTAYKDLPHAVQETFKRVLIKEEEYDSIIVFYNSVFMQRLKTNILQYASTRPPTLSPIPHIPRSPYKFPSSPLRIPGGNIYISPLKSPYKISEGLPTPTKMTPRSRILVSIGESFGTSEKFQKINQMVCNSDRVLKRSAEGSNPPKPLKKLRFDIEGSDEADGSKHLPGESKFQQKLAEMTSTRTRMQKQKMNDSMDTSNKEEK

Consider E7 (from UniProt P03129), for which the Kd was 4.5 nM.
